{
  "source": "paper PMC6282205",
  "target": "Neisseria meningitidis Cas9 (NmeCas9, from strain 8013), 6×His-tagged (Neisseria meningitidis (strain 8013)) (UniProt C9X1G5)",
  "sequence (C9X1G5 whole entry)": "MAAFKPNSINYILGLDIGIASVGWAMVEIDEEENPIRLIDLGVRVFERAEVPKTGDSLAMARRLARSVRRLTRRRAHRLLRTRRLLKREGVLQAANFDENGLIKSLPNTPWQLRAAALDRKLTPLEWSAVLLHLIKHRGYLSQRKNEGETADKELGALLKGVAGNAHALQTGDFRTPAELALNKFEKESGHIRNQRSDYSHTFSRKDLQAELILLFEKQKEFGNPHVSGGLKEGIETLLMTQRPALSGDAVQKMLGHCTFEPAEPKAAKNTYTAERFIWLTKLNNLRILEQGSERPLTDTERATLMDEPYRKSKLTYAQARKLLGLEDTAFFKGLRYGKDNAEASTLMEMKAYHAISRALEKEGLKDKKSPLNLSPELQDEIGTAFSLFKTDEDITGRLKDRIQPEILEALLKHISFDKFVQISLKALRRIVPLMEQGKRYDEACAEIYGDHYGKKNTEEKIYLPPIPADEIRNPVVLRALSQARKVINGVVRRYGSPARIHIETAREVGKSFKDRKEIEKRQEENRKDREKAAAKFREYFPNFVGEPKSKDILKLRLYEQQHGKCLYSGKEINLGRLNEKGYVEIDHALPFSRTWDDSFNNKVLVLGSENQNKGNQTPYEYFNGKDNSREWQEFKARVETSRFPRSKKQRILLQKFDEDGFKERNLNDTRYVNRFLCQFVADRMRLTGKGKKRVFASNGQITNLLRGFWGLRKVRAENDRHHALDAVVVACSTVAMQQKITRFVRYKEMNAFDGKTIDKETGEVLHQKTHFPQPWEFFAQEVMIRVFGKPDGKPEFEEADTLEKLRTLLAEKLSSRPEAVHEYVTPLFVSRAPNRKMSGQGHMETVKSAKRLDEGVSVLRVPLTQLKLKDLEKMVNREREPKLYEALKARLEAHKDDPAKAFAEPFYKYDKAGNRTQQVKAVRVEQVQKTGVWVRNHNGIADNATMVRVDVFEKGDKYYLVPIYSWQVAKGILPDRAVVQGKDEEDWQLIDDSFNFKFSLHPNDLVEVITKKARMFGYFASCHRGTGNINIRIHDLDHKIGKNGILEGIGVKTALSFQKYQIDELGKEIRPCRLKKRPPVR",
  "data": [
    {"substance": "AcrIIC5Smu, untagged (natural protein)", "values": [
      {"measurement": "in vitro cleavage of linearized target plasmid by NmeCas9-sgRNA; molar excess of Acr over Cas9 at complete inhibition (fold molar excess of Acr)", "result": 7}
    ]}
  ]
}
